Patent US20030172404A1, “Method of modifying plant characters by the targeted expression of a cell cycle control protein” (priority 1999, published 2003)

Tests used:
[1] = tested on: tobacco Cdc2 protein, designated Cdc2a
[2] = tested on: dexamethasone-inducible Cdc25 gene; experiment: Induction of Cdc25 mRNA and protein (northern and western blot); assay type: cell-based, N. plumbaginifolia; settings: inducible cell lines; 12 h induction
Protocol: FIG. 1a is a copy of a photographic representation of a northern blot hybridisation showing the induction of Cdc25 mRNA in tobacco cells containing a dexamethasone-inducible Cdc25 gene, in the absence of exogenous cytokinin. […] Total RNA was extracted from tobacco cells either in the absence of added dexamethasone (lane 0), or after 12 h induction with […], or 0.10 μM, or 1.00 μM, or 10.00 μM dexamethasone and then loaded onto agarose gels (60 μg aliquots RNA per lane), transferred to membrane support and probed with a Cdc25-specific probe.
FIG. 1b is a copy of a photographic representation of a western blot showing the induction of p67^Cdc25 protein in tobacco cells containing a dexamethasone-inducible Cdc25 gene, in the absence of exogenous cytokinin. […] Total protein was extracted from tobacco cells either in the absence of added dexamethasone (lane 1), or after 12 h induction with 0.01 μM dexamethasone (Lane 2), or 0.10 μM dexamethasone (Lane 3), or 1.00 μM dexamethasone (Lane 4), or 10.00 µM dexamethasone (Lane 5) and then loaded onto SDS/polyacrylamide gels ([…] aliquots total soluble p67^cdc25 protein per lane), transferred to membrane support and probed with antibody specific for the Cdc25-specific probe. p67^Cdc25 was detected by western blot of 50 μg aliquots of total soluble p67^Cdc25 protein. […]

[3] = tested on: tobacco cells containing a dexamethasone-inducible Cdc25 gene; settings: auxin only
[4] = biological target: tyrosine phosphorylated Cdc2 from arrested Cdc25-22 mutant fission yeast, P04551
[5] = biological target: tobacco Cdc2 protein, designated Cdc2a; remark: listed apart in the source
plant Cdc2 enzyme = experiment: In vitro activation of plant Cdc2 histone kinase by GST-Cdc25; assay type: biochemical, tobacco
Excerpt: FIG. 2e is a graphical representation showing the change in activity of Cdc2 histone kinase in transgenic tobacco cells containing a dexamethasone-inducible Cdc25 gene, progressing from the late G2 phase hormonal control point into division and following their stimulation with cytokinin. The Cdc2 histone kinase was purified using p13^suc1 beads and treated with GST-Cdc25 fusion protein that had been produced in Escherichia coli cells.
Both Cdc2 and Cdc25 enzyme activities were extracted from tobacco cells, by grinding the cells in liquid nitrogen. For Cdc2 extraction, NDE buffer containing 25 mM HEPES (pH 7.2) with protease and phosphatase inhibitors was used. For Cdc25 extraction, PDE buffer, containing 25 mM MOPS (pH 7.2), 100 mM NaCl, 10 mM DTT, 5 mM EDTA, 1mM EGTA, 1% NP-40, 50 mM NaF, 0.5 mM PMSF, 3 μg ml^−1 leupeptin, and 20 μg ml^−1 aprotinin, was used.
To measure Cdc2 activity, the phosphorylation of H1 histone was followed.
We tested this by investigating whether Cdc25 enzyme could activate Cdc2 from cells in prophase and whether the extent of activation by Cdc25 declined when activation had already occurred in vivo. […] After 12 hours, Cdc2 activity declined during anaphase and the enzyme then became unresponsive to GST-Cdc25, consistent with the anaphase decline in activity being due to proteolysis of cyclin, as observed for cyclin 1b in maize mitosis.

Sequence of tyrosine phosphorylated Cdc2 from arrested Cdc25-22 mutant fission yeast, P04551 (P04551 whole entry, looked up, change not shown, tested part not stated): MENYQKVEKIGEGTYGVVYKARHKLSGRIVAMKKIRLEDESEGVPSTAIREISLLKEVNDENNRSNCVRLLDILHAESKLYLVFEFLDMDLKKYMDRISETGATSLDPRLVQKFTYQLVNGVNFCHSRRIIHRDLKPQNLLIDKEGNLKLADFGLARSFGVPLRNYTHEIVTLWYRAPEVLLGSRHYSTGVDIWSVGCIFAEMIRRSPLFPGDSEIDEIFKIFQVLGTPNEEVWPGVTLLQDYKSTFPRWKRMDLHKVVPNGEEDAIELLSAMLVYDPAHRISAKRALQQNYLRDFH

## plant Cdc25 protein (67 kDa tobacco protein)
[1]
  Cdc2 histone kinase activity after incubation with immunoprecipitated Cdc25: non-transgenic plant cells also contain a Cdc25 activity, unambiguously of plant origin, that is both present following cytokinin stimulation and capable of activating plant Cdc2

## C[C@@H]1C[C@H]2[C@@H]3CCC4=CC(=O)C=C[C@]4(C)[C@@]3(F)[C@@H](O)C[C@]2(C)[C@@]1(O)C(=O)CO [dexamethasone]
[2]
  concentration at which Cdc25 mRNA and protein accumulated: 0.01 to 10 µM
[3]; cells arrested at G2 phase hormonal control point, no cytokinin, 12 h induction
  dexamethasone concentration that induced division: 0.01 to 10 µM
[3]; independent clones, G2-arrested cells
  optimum concentration for induction of division: 0.1 µM

B1: fission yeast Cdc25 phosphoprotein phosphatase expressed in transgenic tobacco cells (protein)
chain: MDSPLSSLSFTNTLSGKRNVLRPAARELKLMSDRNANQELDFFFPKSKHIASTLVDPFGKTCSTASPASSLAADMSMNMHIDESPALPTPRRTLFRSLSCTVETPLANKTIVSPLPESPSNDALTESYFFRQPASKYSITQDSPRVSSTIAYSFKPKASIALNTTKSEATRSSLSSSSFDSYLRPNVSRSRSSGNAPPFLRSRSSSSYSINKKKGTSGGQATRHLTYALSRTCSQSSNTTSLLESCLTDDTDDFELMSDHEDTFTMGKVADLPESSVELVEDAASIQRPNSDFGACNDNSLDDLFQASPIKPIDMLPKINKDIAFPSLKVRSPSPMAFAMQEDAEYDEQDTPVLRRTQSMFLNSTRLGLFKSQDLVCVTPKQSTKESERFISSHVEDLSLPCFAVKEDSLKRITQETLLGLLDGKFKDIFDKCIIIDCRFEYEYLGGHISTAVNLNTKQAIVDAFLSKPLTHRVALVFHCEHSAHRAPHLALHFRNTDRRMNSHRYPFLYYPEVYILHGGYKSFYENHKNRCDPINYVPMNDASHVMTCTKAMNNFKRNATFMRTKSYTFGQSVLASPDVNDSPTAMHSLSTLRRF
[4]
  activation of yeast Cdc2 H1 histone kinase (phosphorylation of H1 histone): appearance of Cdc25 activity, which was detected by its activation of yeast Cdc2 Hi histone kinase

B2: GST-Cdc25 catalytic core fusion protein synthesised in Escherichia coli (protein)
chain: SSHVEDLSLPCFAVKEDSLKRITQETLLGLLDGKFKDIFDKCIIIDCRFEYEYLGGHISTAVNLNTKQAIVDAFLSKPLTHRVALVFHCEHSAHRAPHLALHFRNTDRRMNSHRYPFLYYPEVYILHGGYKSFYENHKNRCDPINYVPMNDASHVMTCTKAMNNFKRNATFMRTKSYTFGQSVLASPDVNDSPTAMHSLSTLRRF
[5]
  Cdc2 histone kinase activity after treatment with GST-Cdc25: excess bacterially-synthesised GST-Cdc25 could activate plant Cdc2 enzyme that was extracted in prophase between 3 hours and 12 hours

B3: GST-Cdc25: recombinant GST-Cdc25 catalytic core fusion protein synthesised in Escherichia coli (protein)
chain: B2 chain
modifications: left off: a dimerising Fc or GST
notes: recombinant GST-Cdc25 catalytic core fusion protein synthesised in Escherichia coli
Plant Cdc2 enzyme; Cdc2 extracted after 12 hours
  response of Cdc2 to GST-Cdc25 in anaphase: unresponsive
Plant Cdc2 enzyme; excess bacterially-synthesised GST-Cdc25, Cdc2 extracted in prophase between 3 hours and 12 hours
  activation of plant Cdc2 enzyme: could activate plant Cdc2 enzyme
